Measured values as given in article PMC8347636.

B1: CD24: N36Q (protein)
parent chain: MGRAMVARLGLGLLLLALLLPTQIYSSETTTGTSSNSSQSTSNSGLAPNPTNATTKAAGGALQSTASLFVVSLSLLHLYS
B2: CD24: N52Q (protein)
parent chain: B1 parent chain
B3: CD24: N36,52Q (protein)
parent chain: B1 parent chain
B4: CD24: kifunensine, wild type CD24 (protein)
parent chain: B1 parent chain
B5: CD24: kifunensine, WT-CD24 (protein)
parent chain: B1 parent chain

Legend:
[1] = immunofluorescence, nuclear localisation, all cell lines; details: glycan lost; control: wild type ER-tag CD24
[2] = immunofluorescence, % cells with plasma membrane CD24, MCF-7; details: glycan lost; control: wild type ER-tag CD24
[3] = immunofluorescence, % cells with plasma membrane CD24, Hs578T; details: glycan lost; control: wild type ER-tag CD24
[4] = immunofluorescence, % cells with plasma membrane CD24, HEK293T; details: glycan lost; control: wild type ER-tag CD24
[5] = immunofluorescence, % cells with plasma membrane CD24, MDA-MB-231; details: glycan lost; control: wild type ER-tag CD24
[6] = confocal immunofluorescence, plasma membrane vs cytoplasm, MCF-7; details: glycan changed form; control: untreated cells, same construct
[7] = confocal immunofluorescence, plasma membrane vs cytoplasm, HEK293T; details: glycan changed form; control: untreated cells, same construct
[8] = confocal immunofluorescence, % cells with plasma membrane CD24, Hs578T; details: glycan changed form; control: untreated cells, same construct
[9] = confocal immunofluorescence, % cells with plasma membrane CD24, MDA-MB-231; details: glycan changed form; control: untreated cells, same construct

Row | Protein | localisation_or_trafficking [1] | localisation_or_trafficking [2] | localisation_or_trafficking [3] | localisation_or_trafficking [4] | localisation_or_trafficking [5] | localisation_or_trafficking [6] | localisation_or_trafficking [7] | localisation_or_trafficking, other: % decrease in cells with membrane CD24 [8] | localisation_or_trafficking [9]
1 | B1 | no change | no change | decreases | decreases | no change |  |  |  | 
2 | B2 | no change | no change | decreases | decreases | decreases |  |  |  | 
3 | B3 | no change | no change | decreases | decreases | decreases |  |  |  | 
4 | B4 |  |  |  |  |  | no change | decreases | decreases | 
5 | B5 |  |  |  |  |  |  |  |  | decreases
